Patent US20250236642A1 (NEC, published 2025)

Tests used:
[1] = biological target: T1, HLA-A*02:01 molecule; assay: flow cytometry, T2 cells
T1 construct: MHC class I molecule on T2 cells (ATCC); also called product of an HLA-A*02:01 gene; allele A*02:01

[2] = biological target: T2, HLA-A*24:02 molecule; assay: flow cytometry, C1R-A24 cells;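 further: Read-out was the amount of peptide–MHC complex on each cell, taken as the fluorescence intensity of a bound fluorescent antibody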
T2 construct: MHC class I molecule on C1R-A24 cells, endogenous peptide and b2m stripped at pH 3.3, purified b2m added back; also called product of an HLA-A*24:02 gene; allele A*24:02
Excerpt: Thereafter, the number of MHC-peps for each C1R-A24 cell (proportional to a fluorescence intensity of the fluorescent antibody) was quantitatively measured using a fluorescence cell analyzer FACScan (Becton-Dickinson).

| Binder | log Kd [1] | log10 Kd (M) [2] |
| --- | --- | --- |
| LLLFSAAAL (synthetic 9-mer derived from CADM1) [peptide of SEQ ID NO: 1] | -6.06 | -4.96 |
| YVYDPPTTI (synthetic 9-mer derived from CADM1) [peptide of SEQ ID NO: 2] | -6.16 | -6.23 |
| YTYDPPTTI (synthetic 9-mer derived from CADM1) [peptide of SEQ ID NO: 3] | -5.47 | -5.51 |
| YLYDPPTTI (synthetic 9-mer derived from CADM1) [peptide of SEQ ID NO: 4] | -6.23 | -6.16 |
| ISAYRTCWI (synthetic 9-mer derived from Casp-8) [peptide of SEQ ID NO: 34] | – | -5 |
| FSNDFGQSL (synthetic 9-mer derived from Casp-8) [peptide of SEQ ID NO: 35] | -3.9 | – |
| CMIVHQGTI (synthetic 9-mer derived from c-Myb) [peptide of SEQ ID NO: 36] | – | -5.54 |
| SSFEFFEEA (synthetic 9-mer derived from c-Myb) [peptide of SEQ ID NO: 37] | -6.49 | – |
| HMAKVIEFL (synthetic 9-mer derived from EVC1) [peptide of SEQ ID NO: 38] | -5.69 | -6.03 |
| CLDEHQWQL (synthetic 9-mer derived from EVC1) [peptide of SEQ ID NO: 9] | -6.66 | -5.87 |
| CIDEHQWQL (synthetic 9-mer derived from EVC1) [peptide of SEQ ID NO: 28] | -4.85 | -3.48 |
| CTDEHQWQL (synthetic 9-mer derived from EVC1) [peptide of SEQ ID NO: 39] | -5.04 | – |
| LMEEHGATL (synthetic 9-mer derived from EVC2) [peptide of SEQ ID NO: 13] | -4.92 | -5.22 |
| LIEEHGATL (synthetic 9-mer derived from EVC2) [peptide of SEQ ID NO: 40] | -4.5 | – |
| LLEEHGATL (synthetic 9-mer derived from EVC2) [peptide of SEQ ID NO: 41] | -5.6 | – |
| LTEEHGATL (synthetic 9-mer derived from EVC2) [peptide of SEQ ID NO: 42] | -4.09 | – |
| LVEEHGATL (synthetic 9-mer derived from EVC2) [peptide of SEQ ID NO: 43] | -4.18 | – |
| LHEEHGATL (synthetic 9-mer derived from EVC2) [peptide of SEQ ID NO: 79] | > -3 | > -3 |
| AQAPPTAQL (synthetic 9-mer derived from c-Myb) [peptide of SEQ ID NO: 5] | -6.02 | -5.75 |
| ALAPPTAQL (synthetic 9-mer derived from c-Myb) [peptide of SEQ ID NO: 6] | -6.58 | -5.33 |
| ATAPPTAQL (synthetic 9-mer derived from c-Myb) [peptide of SEQ ID NO: 25] | -5 | -4.54 |
| YFFTVIFSF (synthetic 9-mer derived from Fas) [peptide of SEQ ID NO: 44] | – | -6.77 |

| Binder | log Kd [1] | log10 Kd (M) [2] |
| --- | --- | --- |
| LLITRKSFI (synthetic 9-mer derived from Fas; also called A10) [peptide of SEQ ID NO: 16] | -5.13 | -6.64 |
| LMITRKSFI (synthetic 9-mer derived from Fas) [peptide of SEQ ID NO: 17] | -5.2 | -6.01 |
| LIITRKSFI (synthetic 9-mer derived from Fas) [peptide of SEQ ID NO: 29] | -4.11 | -5.6 |
| LVITRKSFI (synthetic 9-mer derived from Fas) [peptide of SEQ ID NO: 30] | -4.01 | -5.46 |
| LTITRKSFI (synthetic 9-mer derived from Fas) [peptide of SEQ ID NO: 45] | – | -4.82 |
| LAITRKSFI (synthetic 9-mer derived from Fas) [peptide of SEQ ID NO: 46] | – | -5.12 |
| LHITRKSFI (synthetic 9-mer derived from Fas) [peptide of SEQ ID NO: 63] | – | -4.76 |
| EAIDGYITL (synthetic 9-mer; also called H1) [peptide of SEQ ID NO: 47] | – | -5.54 |
| TVLVPPRNL (synthetic 9-mer derived from CADM1) [peptide of SEQ ID NO: 48] | – | -8.27 |
| AYRTCWIFS (synthetic 9-mer derived from Casp-8) [peptide of SEQ ID NO: 49] | – | -5.42 |
| VLPPARHST (synthetic 9-mer derived from c-Myb) [peptide of SEQ ID NO: 54] | -5.11 | – |
| SSLDPPKVL (synthetic 9-mer derived from c-Myb) [peptide of SEQ ID NO: 55] | – | -5.35 |
| SLPFSPSQF (synthetic 9-mer derived from c-Myb) [peptide of SEQ ID NO: 56] | – | -7 |
| FIDSDSSSW (synthetic 9-mer derived from c-Myb) [peptide of SEQ ID NO: 57] | – | -4.7 |
| CDLSSFEFF (synthetic 9-mer derived from c-Myb) [peptide of SEQ ID NO: 58] | – | -4.1 |
| ATGDCSSFI (synthetic 9-mer derived from c-Myb) [peptide of SEQ ID NO: 59] | -4.08 | – |
| LPFSPSQFL (synthetic 9-mer derived from c-Myb) [peptide of SEQ ID NO: 60] | – | -3.35 |
| SLLITRKSF (synthetic 9-mer derived from Fas) [peptide of SEQ ID NO: 62] | – | -5.84 |
| HMTSSERPF (synthetic 9-mer derived from Helios) [peptide of SEQ ID NO: 64] | – | -4.16 |
| GYITCERPF (synthetic 9-mer derived from Helios) [peptide of SEQ ID NO: 65] | – | -6.52 |
| VFGRVMQID (synthetic 9-mer derived from Wnt5a; also called A15) [peptide of SEQ ID NO: 66] | – | -5.41 |
| GRVMQIDGV (synthetic 9-mer derived from Wnt5a) [peptide of SEQ ID NO: 68] | – | -4.63 |

| Binder | log Kd [1] | log10 Kd (M) [2] |
| --- | --- | --- |
| SLPNEKQTS (synthetic 9-mer derived from Casp-8) [peptide of SEQ ID NO: 69] | > -3 | > -3 |
| ILSDHQQSQ (synthetic 9-mer derived from Casp-8) [peptide of SEQ ID NO: 70] | > -3 | > -3 |
| STGESAQTS (synthetic 9-mer derived from Casp-8) [peptide of SEQ ID NO: 71] | > -3 | > -3 |
| GSPDEFSND (synthetic 9-mer derived from Casp-8) [peptide of SEQ ID NO: 72] | > -3 | > -3 |
| SPDEFSNDF (synthetic 9-mer derived from Casp-8) [peptide of SEQ ID NO: 73] | > -3 | > -3 |
| KFLEAFHEV (synthetic 9-mer derived from EVC1) [peptide of SEQ ID NO: 8] | -5.93 | -6.88 |
| GILSDHQQS (synthetic 9-mer derived from Casp-8) [peptide of SEQ ID NO: 74] | > -3 | > -3 |
| THLDAGTVE (synthetic 9-mer derived from Casp-8) [peptide of SEQ ID NO: 75] | > -3 | > -3 |
| LPPARHSTI (synthetic 9-mer derived from c-Myb) [peptide of SEQ ID NO: 76] | > -3 | > -3 |
| ARHSTIPLV (synthetic 9-mer derived from c-Myb) [peptide of SEQ ID NO: 77] | > -3 | > -3 |
| IFADVSSST (synthetic 9-mer derived from c-Myb) [peptide of SEQ ID NO: 78] | > -3 | > -3 |
| GYITLGKPH (synthetic 9-mer derived from Helios) [peptide of SEQ ID NO: 80] | > -3 | > -3 |
| ASPSHMTSM (synthetic 9-mer derived from Helios) [peptide of SEQ ID NO: 81] | > -3 | > -3 |
| ATLAPAVLL (synthetic 9-mer derived from EVC1) [peptide of SEQ ID NO: 10] | -5.56 | -5.2 |
| AVLAPAVLL (synthetic 9-mer derived from EVC1) [peptide of SEQ ID NO: 27] | -5.15 | 4.81 |
| ALPKIRARV (synthetic 9-mer derived from EVC2) [peptide of SEQ ID NO: 12] | -5.66 | -6.18 |
| SLVLTWAAL (synthetic 9-mer derived from EVC2) [peptide of SEQ ID NO: 14] | -5.63 | -5.31 |
| VLLQQFQTA (synthetic 9-mer derived from EVC2) [peptide of SEQ ID NO: 15] | -4.71 | -5.55 |
| VMSHHGEKL (synthetic 9-mer derived from Helios; also called A13) [peptide of SEQ ID NO: 19] | -5.08 | -6.1 |
| LLNPNRQTI (synthetic 9-mer derived from CADM1) [peptide of SEQ ID NO: 23] | -5.24 | -6.22 |
| MLPQTPSHL (synthetic 9-mer derived from c-Myb) [peptide of SEQ ID NO: 24] | -5.58 | -7.14 |
| ALRPAPALL (synthetic 9-mer derived from EVC1) [peptide of SEQ ID NO: 26] | -6.11 | -6.4 |
